According to the supplement of paper PMC12042874:
± gives the uncertainty stated by the source.

Assay: amyloid nucleation score (Sup35N fusion, yeast selection) (log enrichment); library NNK2; higher = more nucleation; inactive = no reads after selection
Method in brief: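 Output and input plasmid inserts were sequenced by Illumina after psi-negative yeast carrying Sup35N fused to peptides of 20 random codons had been induced 24 hours with 100 μM copper sulfate and grown 7 days at 30°C on medium lacking adenine and uracil. The nucleation score is the DiMSum log enrichment of output over input reads, centred on the mode score of non-aggregating sequences. Sequences with under 100 input reads were excluded.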

Going from KVFLWIMLWAMPHTSSGFKP to KVFRSVGMFVCP, the amyloid nucleation score rises from -0.305 ± 0.48 to 1 ± 0.29.

KVFVAYGMAVMLFYICHSK and KVGVVNYTTSLRFAGRDSSL are within error of each other in amyloid nucleation score: 4.561 ± 0.037 for the first, 4.52 ± 0.091 for the second.

KVLRCYGDHFHHANSRTCLR and KWDIIYNNDVGNLCVLVSN are within error of each other in amyloid nucleation score: -1.08 ± 0.76 for the first, -0.817 ± 1 for the second.

First: KWGVAFNCSYNGVDNVNFWC
Second: KWIRFWVKDAFRVGRCHIWG
The amyloid nucleation score of the first is higher: 6.807 ± 0.058 for the first, 0.038 ± 0.5 for the second.

First: KWNRWYVALCLVSV
Second: KWVRLNKFNLPPHYSPPQTM
The amyloid nucleation score of the first is higher: 10.08 ± 0.03 for the first, 1.42 ± 0.24 for the second.

Compared with KYDVEGMQVSRNFY, KYFTVTDVSLY is higher in amyloid nucleation score: -0.424 ± 0.79 for the first, 5.911 ± 0.028 for the second.

KYLGLGAFCVTVDYQRVWDA and KYSAYWG are within error of each other in amyloid nucleation score: 0.879 ± 0.58 for the first, 0.518 ± 0.4 for the second.

First: KYTCLVMAL
Second: KYVALALERFMLAAHGTSLT
The amyloid nucleation score of the first is higher: 1.11 ± 0.28 for the first, -0.235 ± 0.33 for the second.

LAGSVTIPLPTCYSIMTSRP and LAGWRRK are within error of each other in amyloid nucleation score: 0.233 ± 0.77 for the first, 0.355 ± 0.36 for the second.

LAGYSHTI and LAKGPSQDYGAVPHKVMFHS are within error of each other in amyloid nucleation score: 0.406 ± 0.46 for the first, 0.961 ± 0.58 for the second.

Going from LALSTCFYSWIVLAMFFHRK to LALWCTWEVRLIDESAMTTF, the amyloid nucleation score falls from 3.16 ± 0.11 to 0.467 ± 0.29.

First: LANRPCWFLQRARAMV
Second: LAQNEHTLVFILLTNGKS
The amyloid nucleation score of the first is lower: 0.959 ± 0.74 for the first, 3.18 ± 0.046 for the second.

Compared with LASNFGFHGLAADMDALWCY, LAWGNHRVLRWSAPHNIRSR is higher in amyloid nucleation score: -1.23 ± 0.78 for the first, 0.93 ± 0.33 for the second.

LCAWDWSGTRVR and LCEISRASPQGGDRDRAMGK are within error of each other in amyloid nucleation score: 0.903 ± 0.67 for the first, -0.018 ± 0.55 for the second.

LCFYK and LCNKVL are within error of each other in amyloid nucleation score: 0.388 ± 0.32 for the first, 0.27 ± 0.27 for the second.

Compared with LCTRHACNIYGPLPNAHLVR, LCVKVFRRFYRHVHIVHVSQ is lower in amyloid nucleation score: 0.643 ± 0.31 for the first, -0.337 ± 0.4 for the second.

LCVVY and LDCNDYRDVCVSGFYVCIEG are within error of each other in amyloid nucleation score: -0.237 ± 0.35 for the first, -0.597 ± 0.27 for the second.

First: LDFALNCNSRFSLTQDS
Second: LDILIAQALEVFSDQYCNY
The amyloid nucleation score of the first is higher: 2.83 ± 0.13 for the first, -0.992 ± 0.42 for the second.

LDLICMDLWFWTNTS and LDLLKNCCTASMPGSLVVGR are within error of each other in amyloid nucleation score: -0.006 ± 0.4 for the first, 0.369 ± 0.65 for the second.

LDMRSRLHFDDCTRRGYLGM and LDPKIRWLWK are within error of each other in amyloid nucleation score: -0.166 ± 0.65 for the first, 0.204 ± 0.6 for the second.

LDRFLSMRLFLPYVTNLRNH and LDSLCG are within error of each other in amyloid nucleation score: -0.431 ± 0.64 for the first, 0.546 ± 0.57 for the second.

Going from LDWGCILVQ to LEAYVGLLCLSGRLTFSGKC, the amyloid nucleation score rises from 0.012 ± 0.43 to 2.6 ± 0.1.

LELWFGDWNRVMYSCSVDWG and LERECVENDGLGWSRLEYVR are within error of each other in amyloid nucleation score: -0.096 ± 0.5 for the first, 0.42 ± 0.33 for the second.

Compared with LESMRRY, LEVCFWFRNSVTKVSMSACL is lower in amyloid nucleation score: 1.42 ± 0.27 for the first, -1.06 ± 0.63 for the second.

First: LEVTIMTRFVLMLMTLCFPS
Second: LFAIGEVTAYSGRLFSFYTQ
The amyloid nucleation score of the first is lower: -0.066 ± 0.36 for the first, 1.79 ± 0.26 for the second.

Compared with LFEASPDAVTVSCDALGLGY, LFIVSDKTFYKGTGCSDFLV is lower in amyloid nucleation score: 0.324 ± 0.3 for the first, -1.28 ± 1 for the second.

Going from LFLVTVFRCVFFSQGI to LFNLACLRGRKTVWITDKLT, the amyloid nucleation score rises from -1.9 ± 1.1 to 0.012 ± 0.5.

Going from LFPLI to LFRGRMPFPRDSEYLRNRWK, the amyloid nucleation score falls from 1.24 ± 0.44 to -0.287 ± 0.28.

LFSYQYCVVRMVLFIRL and LFVLK are within error of each other in amyloid nucleation score: -0.588 ± 0.53 for the first, -0.843 ± 0.21 for the second.

LFVSSDRHRSDESSGDACCL and LFWDLSY are within error of each other in amyloid nucleation score: -0.494 ± 0.76 for the first, -0.959 ± 0.36 for the second.

LFYWLITENASNQTTMSVRE and LGAGTSWAWLNLTYSEGTYK are within error of each other in amyloid nucleation score: -0.384 ± 0.54 for the first, 0.27 ± 0.8 for the second.

LGCHLVGLVNRGKNGGRISL and LGEYNINLMDGWEGRCRPVR are within error of each other in amyloid nucleation score: 0.315 ± 0.74 for the first, 0.728 ± 0.43 for the second.

LGGRYDVVMLIYLQSALFMG and LGISLPIEVLSFSLSMARCI are within error of each other in amyloid nucleation score: 0.285 ± 1 for the first, -0.408 ± 0.45 for the second.

First: LGLDFLCIRYSGFKCTTF
Second: LGLMLIDLIWLRRYIYSWVR
The amyloid nucleation score of the first is higher: 2.34 ± 0.14 for the first, 0.338 ± 0.34 for the second.

First: LGMFSYIS
Second: LGNIHIWTSV
The amyloid nucleation score of the first is higher: 0.105 ± 0.44 for the first, -1.53 ± 0.49 for the second.

LGSGVILLVY and LGSVGFAVWG are within error of each other in amyloid nucleation score: -0.643 ± 1 for the first, 0.17 ± 0.46 for the second.

First: LGTFKGKSEGPVV
Second: LGTIGYVDCFIDSITCYMVL
The amyloid nucleation score of the first is lower: 0.616 ± 0.64 for the first, 7.953 ± 0.028 for the second.

Compared with LGTVRYLS, LGVVWLS is lower in amyloid nucleation score: 0.399 ± 0.41 for the first, -0.405 ± 0.3 for the second.

LGWQPNMWLISFISVSY and LGYCSSSILCPCCHKILFDA are within error of each other in amyloid nucleation score: -0.81 ± 0.64 for the first, -0.521 ± 0.21 for the second.

For KVSAPHCRLGFWCILC, the amyloid nucleation score was “inactive”.
With LAAGWGVLHELL the amyloid nucleation score was “inactive”.
In the case of LDMSQYYSSRVF, the amyloid nucleation score is reported as “inactive”.
In the case of LDYFFAAL, the amyloid nucleation score is reported as “inactive”.
For LENLHTLC, the amyloid nucleation score was “inactive”.
In the case of LGFSGNI, the amyloid nucleation score is reported as “inactive”.
For LGSVYRQGSEGGWATYLNTY, the amyloid nucleation score was “inactive”.
In the case of LGVTLFFQGDSTTRWDLYPV, the amyloid nucleation score is reported as “inactive”.
In the case of LGYCGM, the amyloid nucleation score is reported as “inactive”.
